According to patent US20220324962A1:

B1: anti-MIS antibody B10 (antibody, V domains shown)
VH: EVQLVESGGSLVKPGGSLRLSCAASGFTFSNYNMNWVRQAPGKGLEWISDINGSSRSIYYADFVKGRFTISRDNATNSLYLQMNSLRAEDTAVYYCVRSSYYGGGMDVWGRGTLVTVSS
VL: QSVLTQPASVSGSPGQSITISCAGTSSDVGGYNYVSWYQQHPGKAPKLMIYYDSYRPSGVSNRFSGSKSGNTASLTISGLQAEDEADYYCSSYTDYSTRVFGGGTKLAVLG

Assays:
[1] = biological target: full-length human MISRII (human) (UniProt Q16671); test: cell-based or functional assay
[2] = biological target: active recombinant MIS (LRMIS) (human) (UniProt P03971); test: sandwich ELISA: recombinant AMH (25 nM) captured on coated polyclonal anti-AMH, B10 titrated 666-0 nM, detected with anti-mouse Fc HRP
Chain of UniProt P03971 (P03971 26-560): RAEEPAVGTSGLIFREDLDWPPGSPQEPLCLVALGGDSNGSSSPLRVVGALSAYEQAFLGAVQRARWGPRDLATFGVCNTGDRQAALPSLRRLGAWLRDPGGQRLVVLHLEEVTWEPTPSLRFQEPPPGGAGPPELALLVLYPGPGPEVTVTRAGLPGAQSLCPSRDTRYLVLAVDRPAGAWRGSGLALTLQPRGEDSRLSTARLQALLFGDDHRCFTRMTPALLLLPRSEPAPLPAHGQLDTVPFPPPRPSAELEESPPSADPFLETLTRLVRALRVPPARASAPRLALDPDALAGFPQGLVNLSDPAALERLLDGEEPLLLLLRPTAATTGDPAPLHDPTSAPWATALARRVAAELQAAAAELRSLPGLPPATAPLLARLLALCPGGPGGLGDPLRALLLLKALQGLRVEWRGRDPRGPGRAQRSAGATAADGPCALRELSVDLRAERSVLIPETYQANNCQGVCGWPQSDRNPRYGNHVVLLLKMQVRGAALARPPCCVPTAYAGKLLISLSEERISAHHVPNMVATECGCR

[3] = biological target: active recombinant MIS (LRMIS) (human) (UniProt P03971); test: cell-based or functional assay

Chain of UniProt Q16671 (Q16671 18-573): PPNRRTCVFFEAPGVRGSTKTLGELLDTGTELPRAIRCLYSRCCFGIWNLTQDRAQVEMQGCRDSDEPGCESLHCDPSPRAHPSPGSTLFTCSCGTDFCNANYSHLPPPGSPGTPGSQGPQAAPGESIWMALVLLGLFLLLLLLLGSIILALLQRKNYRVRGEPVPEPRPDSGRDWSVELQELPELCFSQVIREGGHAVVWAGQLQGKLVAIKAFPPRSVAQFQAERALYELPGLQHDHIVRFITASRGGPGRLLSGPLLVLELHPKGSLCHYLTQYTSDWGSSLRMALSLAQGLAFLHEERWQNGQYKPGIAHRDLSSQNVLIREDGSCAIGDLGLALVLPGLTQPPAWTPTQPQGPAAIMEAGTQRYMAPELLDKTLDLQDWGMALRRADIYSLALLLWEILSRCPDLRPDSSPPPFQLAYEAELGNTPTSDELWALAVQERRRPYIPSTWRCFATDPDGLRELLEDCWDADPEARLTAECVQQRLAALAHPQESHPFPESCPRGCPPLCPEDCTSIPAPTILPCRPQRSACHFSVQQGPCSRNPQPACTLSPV

Apoptosis, evaluated by measuring caspase-3/7 activity (COV434-MISRII cells) [1] | Apoptosis, evaluated by measuring caspase-3/7 activity (SKOV3-MISRII cells) [1] | EC50 [2] | decrease in Caspase-3/7 activity induced by 25 nM MIS (fold change relative to untreated cells) [3] | Molecule
12.5 nM | 6.3 nM | – | – | active recombinant MIS (LRMIS) (from UniProt P03971 26-560) (ligand)
– | – | 50.4 nM | 40% | B1
